Measured values published in patent US20040229298A1.
Several values for one entry are separate records, joined by “and”; a condition that tells them apart may be missing. Equal values may be shown once. Ends that are not written are not given here.

Legend:
Experiment in all cases: G assay ELISA, 10 uM biotin peptide on anti-GST-captured GST-PDZ
[1] = target: GST-SITAC-18 PDZ domain 1 (human)
[2] = target: GST-MUPP1 PDZ domain 10 (human)
[3] = target: GST-FLJ00011 PDZ domain 1 (human)
[4] = target: GST-Shank 1 PDZ domain 1 (human)
[5] = target: GST-NeDLG PDZ domain 2 (human)
[6] = target: GST-LIM-RIL PDZ domain 1 (human)
[7] = target: GST-Shank 3 PDZ domain 1 (human)
[8] = target: GST-KIAA1634 PDZ domain 5 (human)
[9] = target: GST-DLG1 PDZ domain 3 (human)
[10] = target: GST-DLG1 PDZ domain 1 (human)
[11] = target: GST-Shroom PDZ domain 1 (human)
[12] = target: GST-KIAA0316 PDZ domain 1 (human)
[13] = target: GST-X-11 beta PDZ domain 1 (human)
[14] = target: GST-AF6 PDZ domain 1 (human)
[15] = target: GST-EBP50 PDZ domain 1, clone #167.2 (human)
[16] = target: GST-KIAA0147 PDZ domain 2 (human)
[17] = target: GST-ZO-2 PDZ domain 2 (human)
[18] = target: GST-KIAA0751 PDZ domain 1 (human)
[19] = target: GST-X-11 beta PDZ domain 2 (human)
[20] = target: GST-KIAA0147 PDZ domain 4 (human)
[21] = target: GST-Numb BP PDZ domain 1 (human)
[22] = target: GST-RGS12 PDZ domain 1 (human)
[23] = target: GST-FLJ12615 PDZ domain 1 (human)
[24] = target: GST-GTPase PDZ domain 1 (human)
[25] = target: GST-ZO-2 PDZ domain 1 (human)
[26] = target: GST-Syntrophin gamma 1 PDZ domain 1 (human)
[27] = target: GST-NSP PDZ domain 1, clone #42.5 (human)
[28] = target: GST-INADL PDZ domain 8 (human)

WTGRCMSCCRSSRTRRETQL (not fully specified; cysteine pairing not given here) [HPV16 E6 C-terminal PDZ ligand peptide (20 mer, biotinylated), P03126 139-158]
Ave OD [1]: 0.398 A450 nm
OD S/N (ratio to GST only well) [1]: 1.63
Ave OD [2]: 0.393 A450 nm and 0.392 A450 nm
OD S/N (ratio to GST only well) [2]: 2.03 and 1.96
Ave OD [3]: 0.423 A450 nm
OD S/N (ratio to GST only well) [3]: 2.9
Ave OD [4]: 0.385 A450 nm
OD S/N (ratio to GST only well) [4]: 1.71
Ave OD [5]: 0.425 A450 nm
OD S/N (ratio to GST only well) [5]: 2.2
Ave OD [6]: 0.449 A450 nm
OD S/N (ratio to GST only well) [6]: 1.6
Ave OD [7]: 0.396 A450 nm
OD S/N (ratio to GST only well) [7]: 2.61
Ave OD [8]: 0.403 A450 nm
OD S/N (ratio to GST only well) [8]: 2.07
Ave OD [9]: 0.398 A450 nm
OD S/N (ratio to GST only well) [9]: 2.45
Ave OD [10]: 0.391 A450 nm
OD S/N (ratio to GST only well) [10]: 2.98
Ave OD [11]: 0.361 A450 nm
OD S/N (ratio to GST only well) [11]: 3.25
Ave OD [12]: 0.343 A450 nm
OD S/N (ratio to GST only well) [12]: 2.34
Ave OD [13]: 0.352 A450 nm
OD S/N (ratio to GST only well) [13]: 2.02
Ave OD [14]: 0.444 A450 nm
OD S/N (ratio to GST only well) [14]: 1.8
Ave OD [15]: 0.381 A450 nm and 0.355 A450 nm
OD S/N (ratio to GST only well) [15]: 1.94 and 2.28
Ave OD [16]: 0.374 A450 nm
OD S/N (ratio to GST only well) [16]: 2.46
Ave OD [17]: 0.356 A450 nm
OD S/N (ratio to GST only well) [17]: 2.15
Ave OD [18]: 0.451 A450 nm
OD S/N (ratio to GST only well) [18]: 2.1
Ave OD [19]: 0.431 A450 nm and 0.426 A450 nm
OD S/N (ratio to GST only well) [19]: 2.95 and 1.78
Ave OD [20]: 0.38 A450 nm
OD S/N (ratio to GST only well) [20]: 2.34
Ave OD [21]: 0.352 A450 nm
OD S/N (ratio to GST only well) [21]: 3.17
Ave OD [22]: 0.429 A450 nm
OD S/N (ratio to GST only well) [22]: 3.96
Ave OD [23]: 0.461 A450 nm
OD S/N (ratio to GST only well) [23]: 2.24
Ave OD [24]: 0.35 A450 nm
OD S/N (ratio to GST only well) [24]: 1.12
Ave OD [25]: 0.342 A450 nm
OD S/N (ratio to GST only well) [25]: 2.11
Ave OD [26]: 0.358 A450 nm
OD S/N (ratio to GST only well) [26]: 2
Ave OD [27]: 0.416 A450 nm
OD S/N (ratio to GST only well) [27]: 1.95
Ave OD [28]: 0.388 A450 nm
OD S/N (ratio to GST only well) [28]: 1.58
